Results reported in the supplement of paper PMC9170038.

Tested on: K4 kissing-loop RNA reporter
Assay: apparent KD of K4 kissing-loop reporter; higher = weaker reporter binding
Conditions: Eterna round: R107
Procedure: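 RNA-MaP round R107: designed RNA switches with theophylline, tryptophan, arginine or FMN aptamers are transcribed on-chip within common flanks. They are titrated with a labelled K4 kissing-loop RNA reporter in RNA-MaP buffer (100 mM Tris pH 7.5, 80 mM KCl, 4 mM MgCl2), without ligand or with the indicated ligand. Median apparent KD per design.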

[1] = input ligand: theophylline 20 uM
[2] = input ligand: tryptophan 2.4 mM
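Note: bound reporter read as fluorescence of individual clusters on recovered sequencing chips by microscopy, with normalized cluster intensities fitted with a binding model.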

Sequence	apparent KD of K4 kissing-loop reporter (input ligand: FMN 200 uM)	apparent KD of K4 kissing-loop reporter (input ligand: arginine 13.2 mM)	apparent KD of K4 kissing-loop reporter (input ligand: none)	apparent KD of K4 kissing-loop reporter [1]	apparent KD of K4 kissing-loop reporter [2]
UUGAGCCGGACUCAAGUCCGGCUCUGCGAGCGAGGACCGGUACGGCCGCCACUCGGUGCAGUGAUGUUGCAUGGCCGCAAGGCCG [#2 Exclusion - Tryptophan A Attempt #13 (HarryS)]	413 nM	133 nM	482 nM	404 nM	520 nM
UUGAGCCUGACGCAAGUCAGGCUCUGCGAGCGAGGACCGGUACGGCCGCCACUCGGUGCAGUGAUGUUGCAUGGCCGCAAGGCCG [#2 Exclusion - Tryptophan A Attempt #17 (HarryS)]	316 nM	299 nM	318 nM	394 nM	441 nM
UUGAUAUGAUAAUAUCCUGUUUGAUAAAGACAGGAUAUAGAAAAUACUAGAAGGGUCAUUAUAUGCAGUGAUGUUGCAAAUAAGU [Exclusion FMN A Gf 23]	42.2 nM	67.3 nM	45.7 nM	66.2 nM	37.6 nM
UUGAUAUGAUAGUAUCUUGUUUGAUAAAGGCAGGAUAUCGUAUAUUUGAGAAGGGCCAUUAUAUGCAGUGAUGUUGCAAAUAAGU [Exclusion FMN A Gf 25]	43.5 nM	56.7 nM	41.3 nM	61.4 nM	40 nM
UUGUGCAGCAAUCGAGUGAUGUUCGACGAUACCAGCCUCGAUAGAGGCCCUUGGCAGCGUAUCAUCACAUGCCAAGAGCUGCACU [#SwitchBubble 5]	530 nM	362 nM	428 nM	368 nM	419 nM
UUUAUAAUGUCGGCCGCCACUGGAUUAAUAUUUGUAUAAUCUAGUUCUGAGUGAUGUUUAGAGUCCAGGACCGGGACAUUUGUUA [#10 K4 Tryptophan B Exclusion]	701 nM	515 nM	651 nM	788 nM	520 nM
UUUAUAUAGUCGGCCGCCACUGAUUUUUAUAUAUGUUUAUGUUUAUACGAGUGAUGUUCGUUAUUCAGGACCGGGACUUUUGUUA [JR_SSTryptoB_Sub016]	108 nM	133 nM	109 nM	117 nM	102 nM
UUUAUUAAGACGGCCGCCACUGAAUUAGAGUGAUGUUCUAAAAUUUUUAAUUUUUUUUUUUUCAGCAGGACCGGGUCAAUUAUUA [JR_SSTryptoB_Sub012]	128 nM	95.3 nM	116 nM	142 nM	94.5 nM
UUUCGGUUCUGAGGAUAUUCGGACAAAUAUAGUGAUGUUGUAUAAGGAGGAGGGUGUUGGCAGUGCGGAGAAGGCAGAAGAGGAU [ExFMNB.U]	848 nM	737 nM	992 nM	556 nM	446 nM
UUUCGUAGAAGUGAUACCAGACUUGAAAGUGAUGUUUUCCAAUAAUUUAAAUUUUUAGCUGUCCCUUGGCAGCACAGUUUAUUUA [JR_Nu_ExcTheophyB_Sub026]	218 nM	298 nM	263 nM	334 nM	165 nM
UUUGAAAUGACUGAUACCAGUGAAAAUAUAUGUAGUGAUGUUAUAUACUAAUUUAAUAAGCGCCCUUGGCAGCAGUAUGAAUUAU [AstrosExc-theB#16]	763 nM	565 nM	927 nM	527 nM	560 nM
UUUUACGAGUGAUGUUCGUAAUGUAAUAGUUAGGAUAUCGUUUUUUCGAGAAGGAACUUCGAAGUGAUACGAAAGUAUCGCUUCG [FMN A 9]	127 nM	160 nM	184 nM	154 nM	159 nM
UUUUAGGUAUCUGAUACCAGAGAAAAUAUAUGUAGUGAUGUUAUAUACAAAAUAAUUAAGCUCCCUUGGCAGCAGUAUUAAUUUU [AstrosExc-TheB#3]	825 nM	742 nM	854 nM	917 nM	717 nM
UUUUGCGCGUACGAUACCAGUAUCUGUAAGAGUGAUGUUCAGCGCUGAAGACAGCAGCGAUACCCUUGGCAGCGUUACAUGCUAG [theeternabot_sameState_KL_Theo_B_22]	797 nM	422 nM	553 nM	475 nM	530 nM
UUUUUGGAGAAUUAUAGUGAUGUUAUGAAGGAGGAUAUCUGGAGAUGGAGAAGGCCUAGUGGCUCAGCCAUGGAGGGUGGGUGGG [ExFMNA.aA]	1110 nM	527 nM	894 nM	655 nM	611 nM
UUUUUUAAUGGAAGGAGCGCGUGGGCGCAGUGAUGUUGCGCCCGACAUCACUUCAACUUAACGCAGGUAGGUCGCCAUUAUUUUU [Arginine B (Excl) V6]	136 nM	128 nM	122 nM	119 nM	127 nM
